From patent publication US20240083991A1 (Pfizer, published 2024)

T1: human GDF8 (human, UniProt O14793 267-375)
T1 sequence (looked up): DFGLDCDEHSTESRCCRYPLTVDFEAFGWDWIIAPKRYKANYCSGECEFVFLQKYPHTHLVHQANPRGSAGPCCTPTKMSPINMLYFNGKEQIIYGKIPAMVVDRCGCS

T2: human mature BMP9 (human, UniProt Q9UK05 320-429)
T2 construct: also called GDF2; Human BMP9-biotin
T2 sequence: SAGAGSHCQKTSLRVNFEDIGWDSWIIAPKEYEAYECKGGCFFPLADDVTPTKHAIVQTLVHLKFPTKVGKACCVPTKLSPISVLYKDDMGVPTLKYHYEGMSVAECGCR

T3: cyno BMP9 (mature) (cynomolgus monkey, UniProt G7PEU8 320-429)
T3 construct: mature; Biotinylated for SPR capture; also called Cyno BMP9-biotin; cynomolgus monkey BMP9
T3 sequence: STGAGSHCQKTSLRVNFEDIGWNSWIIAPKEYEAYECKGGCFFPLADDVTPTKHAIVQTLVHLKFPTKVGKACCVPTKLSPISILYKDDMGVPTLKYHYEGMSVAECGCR

T4: rat BMP9 (mature) (rat, UniProt M0RB87 320-430, Chemically biotinylated for capture on the SPR chip; sites not stated. Natural mature BMP9 is a disulfide-linked homodimer; one monomer chain is given.)
T4 construct: Biotinylated for SPR capture; also called Rat BMP9-biotin
T4 sequence: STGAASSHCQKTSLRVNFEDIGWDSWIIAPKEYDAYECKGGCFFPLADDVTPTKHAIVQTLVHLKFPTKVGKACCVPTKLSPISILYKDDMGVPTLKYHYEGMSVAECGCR


Experiments:
[1] = target: T1, human GDF8; experiment: cell-based or functional assay
[2] = target: T2, human mature BMP9; experiment: competition ELISA: antibody mixed with 5 nM BMP9-biotin, binding to coated ActRIIA (5 µg/ml) detected
Protocol: (§1) For competition ELISAs, each receptor protein was coated on a 384-well ELISA plate at its optimal coating concentration, 20 μl/well in PBS-CMF at 4° C. overnight. The next day, plates were washed 3 times with PBS+0.05% TWEEN™ 20 and blocked with PBS+1% BSA for 1 hr at RT with shaking. Anti-BMP9 Abs were serially diluted 3-fold in PBS+1% BSA, starting from 100 nM, then mixed with the same volume of the optimal concentration of biotinylated BMP9. The final concentration of biotinylated BMP9 corresponded to the EC₉₀ for each receptor, as determined in a preliminary experiment described above.
(§2) Serially diluted Abs were incubated with biotinylated BMP9 for at least 15 min at RT. Plates were washed as before, followed by addition of serially diluted Abs and the biotinylated BMP9 mixture. After incubating for 1 hr at RT, plates were washed 3 times with PBS+0.05% TWEEN™ 20. Secondary antibody was added (HRP-Streptavidin from BioLegend, cat #405210, 1:2000), followed by 1 hr incubation at RT. Plates were washed as before, signal was developed using TMB substrate, and the reaction stopped with 0.18 M H₂SO₄. Absorbance was read at 450 nm on an ENVISION® plate reader (Perkin Elmer).

[3] = target: T2, human mature BMP9; experiment: competition ELISA: antibody mixed with 1.5 nM BMP9-biotin, binding to coated BMPRII (2 µg/ml) detected
Protocol: as §1, §2

[4] = target: T2, human mature BMP9; experiment: competition ELISA: antibody mixed with 15 nM BMP9-biotin, binding to coated ActRIIB (5 µg/ml) detected
Protocol: as §1, §2

[5] = target: T2, human mature BMP9; experiment: cell-based or functional assay
[6] = target: T2, human mature BMP9; experiment: cell-based or functional assay; remark: listed apart in the source
[7] = target: T2, human mature BMP9; experiment: competition ELISA: antibody mixed with 0.6 nM BMP9-biotin, binding to coated BMPRII (1 µg/ml) detected
Protocol: as §1, §2

[8] = target: T3, cyno BMP9 (mature); experiment: SPR (Biacore T200), 37° C., biotinylated BMP9 captured on Sensor Chip CAP, Fab as analyte, 1:1 model
Protocol: (§3) The running and sample buffer was 10 mM HEPES pH 7.4, 0.15 M NaCl, 3 mM EDTA, 0.05% P-20 (HBS-EP+). Biotinylated mature human, cyno, and rat BMP9 proteins were reversibly captured onto a Sensor Chip CAP using the Biotin CAPture Reagent (Cytiva, 28920234) according to the manufacturer's instructions. The final capture level of human BMP9 was 100 resonance units (RU), cyno BMP9 was 50 RU, and rat BMP9 was 60 RU. Flow cell 1, without BMP9, was used as a reference flow cell. A two-fold dilution series of the Ab1076 Fab ranging from 100 nM to 6.2 nM was injected for 60 seconds at a flow rate of 100 μl per minute and the dissociation was monitored for 1800 seconds. Rate constants and affinities were determined by fitting the double referenced sensorgram data to a 1:1 model in BIACORE™ Insight Evaluation software version 3.0.1.12.15655 (Cytiva).

[9] = target: T2, human mature BMP9; experiment: as above
Protocol: as §3

[10] = target: T4, rat BMP9 (mature); experiment: as above
Protocol: as §3

| Binder | IC50 (read off the curve) [2] | IC50 (read off the curve) [3] | IC50 (read off the curve) [4] | IC50 (read off the curve): BMP9-induced pSMAD1/5/9 nuclear translocation, TIME cells [5] | IC50 (read off the curve) [7] | other results |
| --- | --- | --- | --- | --- | --- | --- |
| Ab732 (antibody, human IgG1, lambda, V domains shown) VH: QVQLVQSGAEVKKPGASVKVSCKASGYTFTSYGISWVRQAPGQGLEWMGWISAYIGNTNYAQKLQGRVTMTTDTSISTAYMELSRLRSDDTAVYYCARAYYMDVWGQGTTVTVSS VL: NFMLTQPHSVSESPGKTVTISCTGSSGNIASNYVQWYQQRPGSAPTTVIYEDKQRPSGVPDRFSGSIDRSSNSASLTISGLKTEDEADYYCQSYDNHLSVVFGGGTKLTVLG |  |  |  |  |  | IC50 (read off the curve): GDF8-induced CAGA-luciferase activity, C2C12 reporter cells [1]: ~600 nM |
| Ab89 (antibody, human IgG1, lambda, V domains shown, Parental anti-BMP9 antibody from a human phage library, human IgG1/lambda; The heavy chain can be prepared with or without the C-terminal lysine) VH: QVQLVQSGAEVKKPGASVKVSCKASGYTFTSYYMHWVRQAPGQGLEWMGIINPSGGSTSYAQKFQGRVTMTRDTSTSTVYMELSSLRSEDTAVYYCASRDYYGSGRVYYYYGMDVWGQGTTVTVSS VL: NFMLTQPHSVSESPGKTVTISCTGSSGSIASNYVQWYQQRPGSAPTTVIYEDNQRPSGVPDRFSGSIDSSSNSASLTISGLKTEDEADYYCQSYDSSIHVVFGGGTKLTVLG | ~2 nM | ~4 nM | ~8 nM |  |  |  |
| Ab101 (antibody, human IgG1, lambda, V domains shown, Parental clone converted to human IgG1/lambda; The heavy chain can be prepared with or without the C-terminal lysine; also called BMP9-0101) VH: QVQLVQSGAEVKKPGASVKVSCKASGYTFTSYGISWVRQAPGQGLEWMGWISAYNGNTNYAQKLQGRVTMTTDTSTSTAYMELRSLRSDDTAVYYCARAYGMDVWGQGTTVTVSS VL: NFMLTQPHSVSESPGKTVTISCTGSSGSIASNYVQWYQQRPGSAPTTVIYEDKQRPSGVPDRFSGSIDRSSNSASLTISGLKTEDEADYYCQSYDNSLSVVFGGGTKLTVLG | ~3 nM |  | ~10 nM | ~80 nM |  |  |
| Ab93 (antibody, human IgG1, lambda, V domains shown, Parental clone converted to human IgG1/lambda; The heavy chain can be prepared with or without the C-terminal lysine; also called BMP9-0093) VH: not shown VL: QSVLTQPPSASGTPGQRVTISCSVTNSDIDIDNVHWYQQLPGMAPKLLFFHDYRPSGVSDRFSGSKSGTSASLAIVGLQSEDEGYYYCAGLDVAMRGPVFGGGTKLTVLG | ~1 nM | ~4 nM | ~7 nM | ~0.1 nM | ~0.5 nM | IC50 (read off the curve): BMP9-induced pSMAD2 nuclear translocation, TIME cells [6]: ~0.08 nM |
| Ab352 (antibody, human IgG1, lambda, V domains shown, Optimized variant of Ab93; The heavy chain can be prepared with or without the C-terminal lysine) VH: EVQLVESGGGLVQPGGSLRLSCAASGFTFSNAWMSWVRQAPGKGLEWVGRIKSKTDSGTTDYAAPVKGRFTISRDNAKNSLYLQMNSLRAEDTAVYYCTTGTYWGQGTLVTVSS VL: QSVLTQPPSASGTPGQRVTISCSVTNSDIDIFNVHWYQQLPGTAPKLLFFHDYRPSGVSDRFSGSKSGTSASLAISGLRSEDEADYYCAGLDVAMRGPVFGGGTKLTVLG |  |  |  | ~0.05 nM | ~0.2 nM |  |
| Ab1076 Fab (Fab, V domains shown, Monovalent Fab fragment of Ab1076; also called Ab1076 Fab fragment) VH: not shown VL: QSVLTQPPSASGTPGQRVTISCSVTNTDIDIFNVHWYQQLPGTAPKLLFFHDYRPSGVSDRFSGSKSGTSASLAIVGLQSEDEGYYYCAGLDEAMRGPVFGGGTKLTVLG |  |  |  |  |  | Kd [8]: 0.0658 nM; koff [8]: 3.84e-05 s⁻¹; kon [8]: 585000 M⁻¹ s⁻¹; Kd [9]: 0.0874 nM; koff [9]: 3.84e-05 s⁻¹; kon [9]: 440000 M⁻¹ s⁻¹; Kd [10]: 0.0986 nM; koff [10]: 5.14e-05 s⁻¹; kon [10]: 532000 M⁻¹ s⁻¹ |
| Ab804 (antibody, human IgG1, lambda, V domains shown, Optimized variant of Ab93; The heavy chain can be prepared with or without the C-terminal lysine) VH: not shown VL: QSVLTQPPSASGTPGQRVTISCSVTNPDIDIFNVHWYQQLPGTAPKLLFFHEYRPSGVSDRFSGSKSGTSASLAIVGLQSEDEGYYYCAGLDEAMRGPVFGGGTKLTVLG |  |  |  |  | ~0.2 nM |  |
| Ab100 (antibody, human IgG1, lambda, V domains shown, Parental anti-BMP9 antibody, human IgG1/lambda; The heavy chain can be prepared with or without the C-terminal lysine) VH: QMQLVQSGAEVKKPGSSVKVSCKASGGTFSSYAISWVRQAPGQGLEWMGGIIPIFGTANYAQKFQGRVTITADESTSTAYMELSSLRSEDTAVYYCARVQLDLSYYYYYGMDVWGQGTTVTVSS VL: QSALTQPASVSGSPGQSITISCTGTSSDVGSYNLVSWYQQHPGKAPKLMIYEVSKRPSGVSDRFSGSKSANTASLTISGLQAEDEADYYCSSFSINGPSFVFGTGTKVTVLG | ~3 nM | ~4 nM | ~8 nM |  |  |  |
